Like-named read-outs stand apart in the source and are kept apart here.
Legend:
Assay in all cases: SPR
[1] = molecular target: T1, monomeric hRNF43-His antigen (UniProt Q68DV7 24-197)
T1 chain: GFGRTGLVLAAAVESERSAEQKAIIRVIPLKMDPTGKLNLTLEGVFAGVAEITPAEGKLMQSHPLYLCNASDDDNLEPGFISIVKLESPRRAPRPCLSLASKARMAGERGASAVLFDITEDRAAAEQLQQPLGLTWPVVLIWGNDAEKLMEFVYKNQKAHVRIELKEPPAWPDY

[2] = molecular target: SC37.78
[3] = molecular target: rSC37.39
[4] = molecular target: rSC37.67
[5] = molecular target: rSC37.17
[6] = molecular target: SC37.23
[7] = molecular target: SC37.9
[8] = molecular target: T1, monomeric hRNF43-His antigen
[9] = molecular target: T1, monomeric hRNF43-His antigen
[10] = molecular target: T1, monomeric hRNF43-His antigen

B1: SC37.3 (antibody, V domains shown)
VH: QIQLVQSGPELKKPGETVKISCKASGYTFTNYGMNWVRQAPGKGLKWVGWINTNTGEPTYADDFKGRFAFSLETSASTAYLQISNLKNEDMSTYFCAGSHDYSFAYWGQGTLVTVSA
VL: QAVVTQESALTTSPGETVTFTCRSSTGAVTTSNYANWVQEKPDHLFTGLIGGTNNRAPGVPARFSGSLIGDKAALTITGAQTEDEAIYFCALWYSNHWVFGGGTKLTVL
- Kd [1]: 44 nM

B2: RNF43 (other)
chain: T1 chain
- Kd [2]: 10.8 nM
- Kd [3]: 1 nM
- Kd [4]: 5.4 nM
- Kd [5]: 9.3 nM
- Kd [6]: 23.7 nM
- Kd [7]: 160 nM

B3: SC37.67 (antibody, V domains shown)
VH: QVQLQQSGAELMKPGASVKISCKATGYTFSRYWIEWVKQRPGHGLEWIGEILPGSGSTNYNEKFKGKATFTADTSSNTAYMQLTSLTSEDSAVYFCERRGAYWGQGTLVTVSA
VL: DIQMTQSSSSFSVSLGDRVTITCKASEDIYNRLAWYQQKPGNAPRLLISGATSLETGVPSRFSGSGSGKDYTLSITSLQTEDVATYHCQQNWSTPPTFGGGTKLEIK
- Kd [8]: 3.5 nM

B4: SC37.39 (antibody, V domains shown)
VH: QVQLQQSAAELARPGASVKMSCKASGYTFTTYTIHWVKQRPGQGLKWIGYINPRSGYTEYNQKFQDKTTMTSDNSSSTAYIQLSSLTSEDSAVYYCARSYEFWGQGTTLTVSS
VL: DIVMTQSQKFMSTSGGDRVSVTCKASQNVGINVAWYQQKPGQSPKALIYSASYRYSGVPNRFTGSGSGTDFTLTISNVQSEDLGDYFCHQYKTYPYTFGGGTKLEIK
- Kd [9]: 1.1 nM

B5: hSC37.17 (antibody, V domains shown)
VH: QVQLVQSGAEVKKPGASVKVSCKASGFNIKDTYIHWVRQAPGQGLEWMGRIDPANGKANYDPKFQGRVTMTRDTSTSTVYMELSSLRSEDTAVYYCALGGGYYGMDYWGQGTLVTVSS
VL: DIVMTQSPDSLAVSLGERATINCRASESVDSYGNSFMHWYQQKPGQPPKLLIYLASNLESGVPDRFSGSGSGTDFTLTISSLQAEDVAVYYCQQNNEDPLTFGQGTKVEIKR
- Kd [10]: 1.2 nM

B6: hSC37.67 (antibody, V domains shown)
VH: QVQLVQSGAEVKKPGASVKVSCKASGYTFTRYWIEWVRQAPGQRLEWMGEILPGSGSTNYNEKFKGRVTITADTSASTAYMELSSLRSEDTAVYYCERRGAYWGQGTLVTVSS
VL: DIQMTQSPSSLSASVGDRVTITCKASEDIYNRLAWYQQKPGKAPKLLISGATSLETGVPSRFSGSGSGTDYTLTISSLQPEDFATYYCQQNWSTPPTFGGGTKVEIKR
- Kd [8]: 4.2 nM

B7: SC37.17 (antibody, V domains shown)
VH: EVQLQQSGADLVKPGASVKLSCTGSGFNIKDTYIHWVRQRPEQGLEWIGRIDPANGKANYDPKFQGKATMTADTSSKTVYVQLSSLTSEDTAVYYCALGGGYYGMDYWGRGTSVTVSS
VL: NIVLTQSPASLAVSLGQRATISCRASESVDSYGNSFMHWYQQKPGQPPKLLIYLASNLESGVPARFSGSGSRTDFTLTIDPVEADDAATYYCQQNNEDPLTFGAGTKLELK
- Kd [10]: 9.3 nM

B8: hSC37.2 (antibody, V domains shown)
VH: EVQLVESGGGLVQPGGSLRLSCAASGFTFSDFDMEWVRQAPGKGLEWVGASRNKANDYTTQYSASVKGRFTISRDTSKNSLYLQMNSLKTEDTAVYYCARDRYDYALDYWGQGTTVTVSS
VL: DIQMTQSPSSLSASVGDRVTITCKSSQTLLYYSNQKNYLAWYQQKPGKVPKLLIYWASTRDSGVPSRFSGSGSGTDFTLTISSLQPEDVATYYCQQYYNYPLTFGQGTKLEIKR
- Kd [1]: 120 nM

B9: hSC37.39 (antibody, V domains shown)
VH: QVQLVQSGAEVKKPGASVKVSCKASGYTFTTYTIHWVRQAPGQGLEWMGYINPRSGYTEYNQKFQDRVTMTRDTSTSTVYMELSSLRSEDTAVYYCARSYEFWGQGTTVTVSS
VL: EIVMTQSPATLSVSPGERATLSCKASQNVGINVAWYQQKPGQAPRALIYSASYRYSGIPARFSGSGSGTEFTLTISSLQSEDFAVYYCHQYKTYPYTFGGGTKVEIKR
- Kd [9]: 0.34 nM

B10: SC37.2 (antibody, V domains shown)
VH: EVNLVESGGGLVQPGGSLRLSCATSGFTFSDFDMEWVRQPPGKRLEWIAASRNKANDYTTQYSASVKGRFIVSRDTSQSIVYIQMNALRAEDTAIYYCARDRYDYALDYWGQGTSVTVSS
VL: DIVMSQSPSSLAVSVGEKVTMSCKSSQTLLYYSNQKNYLAWYQRKPGLSPKLLIYWASTRDSGVPDRFTGSGSGTDFTLTISSVKAEDLAVYYCQQYYNYPLTFGAGTKLELK
- Kd [1]: 220 nM
